T1: CD73 on the surface of human cells (human, UniProt P21589 27-549)
T1 construct: whole, on cells; The cell line of each value is named under assay or readout; also called CD73 on the surface of tumor cells; CD73 enzyme on the surface of MDA-MB-231 cells
T1 sequence (looked up): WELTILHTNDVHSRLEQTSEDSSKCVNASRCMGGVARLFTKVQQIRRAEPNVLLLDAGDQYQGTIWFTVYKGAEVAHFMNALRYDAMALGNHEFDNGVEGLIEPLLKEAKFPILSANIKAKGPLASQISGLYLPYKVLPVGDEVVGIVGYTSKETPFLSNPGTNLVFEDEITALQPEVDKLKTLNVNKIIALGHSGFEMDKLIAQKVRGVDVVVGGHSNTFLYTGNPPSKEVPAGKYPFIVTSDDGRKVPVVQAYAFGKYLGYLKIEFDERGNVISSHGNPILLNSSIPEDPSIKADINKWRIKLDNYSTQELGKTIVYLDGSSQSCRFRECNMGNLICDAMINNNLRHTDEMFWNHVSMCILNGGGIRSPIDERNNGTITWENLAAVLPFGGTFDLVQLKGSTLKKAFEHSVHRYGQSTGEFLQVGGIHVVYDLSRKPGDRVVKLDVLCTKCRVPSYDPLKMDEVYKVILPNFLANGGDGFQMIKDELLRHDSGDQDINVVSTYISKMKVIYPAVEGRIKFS

T2: extracellular domain of human CD73 protein, C-terminus polyhistidine-tagged (human, UniProt P21589 27-547)
T2 construct: also the immunogen; also called CD73-ECD; human CD73-ECD
T2 sequence: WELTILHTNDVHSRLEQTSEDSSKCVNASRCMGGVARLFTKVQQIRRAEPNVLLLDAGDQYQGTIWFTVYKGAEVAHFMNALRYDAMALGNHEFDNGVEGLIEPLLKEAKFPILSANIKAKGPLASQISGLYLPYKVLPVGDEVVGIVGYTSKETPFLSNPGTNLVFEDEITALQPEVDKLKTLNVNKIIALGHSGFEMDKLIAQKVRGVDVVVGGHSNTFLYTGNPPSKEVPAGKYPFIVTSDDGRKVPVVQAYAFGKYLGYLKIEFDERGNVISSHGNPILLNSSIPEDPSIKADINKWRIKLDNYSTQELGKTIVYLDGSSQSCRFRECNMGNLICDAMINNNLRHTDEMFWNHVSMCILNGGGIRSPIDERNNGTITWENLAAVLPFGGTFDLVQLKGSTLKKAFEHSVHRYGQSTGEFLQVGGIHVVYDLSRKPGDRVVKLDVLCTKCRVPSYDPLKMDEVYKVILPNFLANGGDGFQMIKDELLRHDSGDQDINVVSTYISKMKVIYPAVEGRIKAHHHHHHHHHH

B1: chimeric nanobody 3-D7 (Fc fusion)
VHH: QRQLVESGGGLVQPGGSLRLSCAASGFLLDYYVIGWFRQAPGKEREGVSCISGSDRSTYYADSVKGRFTISRDNAKNTVYLQMNSLKPEDTAVYFCAADPSPVTVQAMCLPRFPVPYWGQGTQVTVST
notes: Human-alpaca chimeric antibody (VHH on hIgG1 Fc); Only the VHH is tied to the tested molecule; 37-39 exist for 3-D7-FC1/FC2/FC3; also called original antibody 3-D7
B2: chimeric nanobody 4-D04 (Fc fusion)
VHH: QLQLVESGGGLVQPGGSLRLSCAASGFTLDYYNIGWFRQAPGKEREGVSCISSSEGSTYYADSVKGRFTISRDNAKNTVYLQMNSLKPEDTAVYYCAADRYYYCSLHVSQYDYWGQGTLVTVSS
notes: Human-alpaca chimeric antibody
B3: chimeric nanobody 4-B02 (Fc fusion)
VHH: EVQLVESGGGLVQPGGSLRLSCAASGFPLDYYSIGWFRQAPGKEREGVSCIGSSDGSTYYADSVKGRFTISRDNAENTVWLQMNSLKPEDTAVYYCAALKYYYCSGHEAIYDYWGQGTQVTVSG
notes: as for B2
B4: chimeric nanobody 5-E11 (Fc fusion)
VHH: ALQLVESGGGLVQPGGSLRLSCEVSGFTLDYYNIGWFRQAPGKEREGVSCSSNSGGSTYYADSVKGRFTISRDNAKNTVYLQMNSLKPEDTGVYYCAAYRGWHPSLDARVYDYWGQGTEVTVSS
notes: Human-alpaca chimeric antibody (VHH on hIgG1 Fc); Only the VHH is tied to the tested molecule; also called original antibody 5-E11

The target of one assay is T1, CD73 on the surface of human cells. Put plainly: flow cytometry on SW1573 cells. The procedure:
(§1) 100 μL of the test antibodies diluted from 10 μg/mL to 0.016 μg/mL in a 5-fold gradient were used as the primary antibodies, and were mixed with 1×10⁵ tumor cells suspended in 100 μL RPMI-1640 serum-free medium to make a final concentration of 5 μg/mL diluted to 0.008 μg/mL, and then incubated at 4° C. for 1 h. The cells were washed twice with PBS to remove unbound primary antibodies, and then the target cells were incubated with 200 μLPE-labeled secondary antibody at 2 μg/mL at 4° C. for 30 min. The cells were washed twice with PBS to remove unbound secondary antibodies, and finally the cells were resuspended in 200 μL PBS. The binding affinity of the test antibodies to CD73 on the surface of the corresponding cells was measured by flow cytometry.
Take B1: the EC50 turned out to be 0.116 µg/mL.

B2 came in with a concentration giving a half-maximal response (EC50) of 0.067 µg/mL.

Take B3: the EC50 stood at 0.061 µg/mL.

For the next assay the target is unchanged. Nature of the assay: Flow cytometry on NCI-H1299 cells, PE-labelled secondary antibody [panel B]. The procedure: as §1
Turning to B1, the “Max MFI” value turned out to be 155000 MFI.

For the molecule B2, the “Max MFI” value was 168000 MFI.

Take B4: the “Max MFI” value turned out to be 157000 MFI.

As for B3, the “Max MFI” value came out at 170000 MFI.

In the next assay the target is T2, extracellular domain of human CD73 …. Put plainly: ELISA on CD73-ECD, 100 µL supernatant of antibody expression, first of two readings; PBS 0.19, 0.18. As for the experimental part:
(§2) The CD73 protein extracellular region (CD73-ECD) was diluted to 1 μg/mL using the coating solution, and an ELISA plate was coated at 100 μL/well at 4° C. overnight. Excess antigens were washed away, and the plate was blocked with 1% BSA at room temperature for 2 hours. Then, 5-fold gradient dilutions of each monoclonal antibody were added at 100 μL/well and incubated at room temperature for 1 hour. Unbound antibodies were washed away, and an appropriate concentration of Staphylococcal protein A labeled with horseradish peroxidase was added at 100 μL/well and incubated at room temperature for 0.5 hours. Unbound secondary antibodies were washed away, and TMB color development solution was added to react for about 15 minutes. 1M HCL was added at 50 µL/well to terminate the color development reaction, and then the absorbance was measured at 450 nm and the data was analyzed.
CD73 antigen ELISA binding affinity test was performed according to the method of Example 3.
With B4, the “ELISA reading (not named on the sheet)” value is 4.33.

Another assay has as its target T1, CD73 on the surface of human cells. Put plainly: Flow cytometry on MDA-MB-231 cells, PE-labelled secondary antibody [panel A]. As for the experimental part: as §1
As to B1, the “Max MFI” value was 69600 MFI.

In the case of B2, the “Max MFI” value was 79300 MFI.

For the molecule B4, the “Max MFI” value came out at 64500 MFI.

On to B3, for which the “Max MFI” value came to 69500 MFI.

Another assay shares this target. Put plainly: Flow cytometry on SW1573 cells, PE-labelled secondary antibody [panel A]. As for the experimental part: as §1
With B1, the “Max MFI” value was 71000 MFI.

On to B2, for which the “Max MFI” value was 71300 MFI.

B4: the “Max MFI” value turned out to be 69600 MFI.

For B3, the “Max MFI” value is 73800 MFI.

In another assay the target is T2, extracellular domain of human CD73 …. Nature of the assay: SPR as the filing names it (ForteBio OCTET R2); antibody on Protein A sensor, CD73-ECD in solution, 25 C. As for the experimental part:
(§3) Surface plasmon resonance (SPR) assay: Protein A sensor was used to immobilize the antibodies, with an immobilization height of about 1.5 nM. […] Affinity detection: equilibrium for 60 s, binding for 180 s, dissociation for 180 s, at a detection temperature of 25° C. Kinetic characterization analysis was performed using the ForteBio OCTET R2 system.
As to B1, the Kd is 2 nM.

Molecule B2 showed a Kd of 0.919 nM.

Turning to B4, the Kd came to 0.826 nM.

In turn, B3 had a Kd of 0.795 nM.

The next assay shares this target. Put plainly: SPR as the filing names it (method of Example 2, ForteBio OCTET R2). As for the experimental part:
as §3
The affinity of the humanized antibody to the antigen was detected by the surface plasmon resonance (SPR) assay method in Example 2.
B1: binding was put at a Kd of 0.472 nM.

In another assay the target is T1, CD73 on the surface of human cells. Nature of the assay: flow cytometry on NCI-H1373 cells. The procedure:
as §1
For B1, a half-maximal effect (EC50) was put at 0.227 µg/mL.

In the case of B2, the midpoint of the response, the EC50, lay at 0.163 µg/mL.

Consider B4, for which a half-maximal response (EC50) required 0.135 µg/mL.

B3 had an EC50 of 0.112 µg/mL.

The target is the same in a further assay. Nature of the assay: flow cytometry on HCC44 cells. The procedure:
as §1
For the molecule B1, the EC50 is 0.234 µg/mL.

With B2, a half-maximal effect (EC50) was put at 0.114 µg/mL.

Take B4: the EC50 was 0.096 µg/mL.

On to B3, for which a half-maximal effect (EC50) was put at 0.105 µg/mL.

Another assay has as its target T2, extracellular domain of human CD73 …. Nature of the assay: ELISA on coated human CD73-ECD, HRP-protein A detection; fitted upper plateau of the OD450 curve. Also noted: unit not given here. As for the experimental part:
as §2
In the case of B1, the “Top (%)” value came to 1.79.

Turning to B2, the “Top (%)” value came to 2.08.

For B4, the “Top (%)” value was 2.28.

For the molecule B3, the “Top (%)” value was found to be 2.

These data come from patent US20250382376A1 (FUDAN UNIVERSITY, published 2025).
